Source: article PMC7948466

Legend:
[1] = target: DNMT3A full length;p53 (Homo sapiens;Homo sapiens, UniProt Q9Y6K1;P04637 1-912;1-393, |); experiment: fluorescence anisotropy; unlabeled H3K4me0 peptide titrated; 50 nM DNA, 1 uM 1:1 complex; FA increases; Fluorescence anisotropy (ex 485 nm, em 520 nm), 5 min incubation at room temperature; binding buffer, salt and pH not given in the material
[2] = target: DNMT3A full length;TDG (Homo sapiens;Homo sapiens, UniProt Q9Y6K1;Q13569 1-912;1-410, |); experiment: as above
Sequence of DNMT3A full length;TDG (Q9Y6K1 whole entry, chain 1 of 2): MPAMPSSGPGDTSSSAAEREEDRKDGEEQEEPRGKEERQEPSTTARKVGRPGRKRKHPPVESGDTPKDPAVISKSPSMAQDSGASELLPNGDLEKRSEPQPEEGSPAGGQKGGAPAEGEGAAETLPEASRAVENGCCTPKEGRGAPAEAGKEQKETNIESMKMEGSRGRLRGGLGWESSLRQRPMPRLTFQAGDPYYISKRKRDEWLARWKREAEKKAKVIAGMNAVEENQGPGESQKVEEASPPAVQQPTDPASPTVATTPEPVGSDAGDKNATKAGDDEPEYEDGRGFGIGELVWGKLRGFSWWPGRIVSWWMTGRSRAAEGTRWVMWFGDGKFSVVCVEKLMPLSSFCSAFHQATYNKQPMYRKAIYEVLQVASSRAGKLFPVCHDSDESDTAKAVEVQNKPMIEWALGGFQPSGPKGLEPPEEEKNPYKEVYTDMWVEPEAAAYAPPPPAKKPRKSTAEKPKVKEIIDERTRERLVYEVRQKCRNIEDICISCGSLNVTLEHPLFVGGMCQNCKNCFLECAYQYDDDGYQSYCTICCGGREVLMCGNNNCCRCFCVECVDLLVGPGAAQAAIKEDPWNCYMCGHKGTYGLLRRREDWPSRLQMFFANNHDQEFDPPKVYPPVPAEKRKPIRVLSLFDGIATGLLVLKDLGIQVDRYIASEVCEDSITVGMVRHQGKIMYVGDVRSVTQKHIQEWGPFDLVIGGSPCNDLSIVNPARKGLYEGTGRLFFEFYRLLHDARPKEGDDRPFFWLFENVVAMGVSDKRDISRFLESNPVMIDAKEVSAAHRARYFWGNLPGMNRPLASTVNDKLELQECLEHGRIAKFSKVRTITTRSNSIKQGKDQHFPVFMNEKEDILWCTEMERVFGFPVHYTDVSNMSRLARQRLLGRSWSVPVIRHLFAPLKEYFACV
Sequence of DNMT3A full length;TDG (Q13569 whole entry, chain 2 of 2): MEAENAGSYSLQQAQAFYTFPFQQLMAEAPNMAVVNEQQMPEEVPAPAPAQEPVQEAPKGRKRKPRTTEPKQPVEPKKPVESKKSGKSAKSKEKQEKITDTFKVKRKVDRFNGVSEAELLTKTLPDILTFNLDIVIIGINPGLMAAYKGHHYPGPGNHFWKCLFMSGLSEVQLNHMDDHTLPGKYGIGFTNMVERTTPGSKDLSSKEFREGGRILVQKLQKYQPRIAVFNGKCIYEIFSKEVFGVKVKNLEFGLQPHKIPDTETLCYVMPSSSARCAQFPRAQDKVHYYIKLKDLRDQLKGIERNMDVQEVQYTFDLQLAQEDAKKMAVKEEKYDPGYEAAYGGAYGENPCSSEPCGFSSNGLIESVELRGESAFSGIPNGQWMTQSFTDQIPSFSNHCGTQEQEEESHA

[3] = target: DNMT3A full length (Homo sapiens, UniProt Q9Y6K1 1-912); experiment: fluorescence anisotropy; unlabeled H3K4me0 peptide (1-21) titrated; 50 nM DNA, 1 uM DNMT3A; FA increases; Fluorescence anisotropy (ex 485 nm, em 520 nm), 5 min incubation at room temperature; binding buffer, salt and pH not given in the material
Sequence of DNMT3A full length (Q9Y6K1 whole entry): as the sequence (Q9Y6K1 whole entry, chain 1 of 2) above

Measured: binding result

B1: GCbox30 (dsDNA)
DNA 1: TGGATATCTAGGGGCGCTATGATATCT
DNA 2: AGATATCATAGCGCCCCTAGATATCCA
binds: all assays above
